Biological target: opto-DN-CREB
Assay: thermal relaxation kinetics

stoichiometry N: 1
B1: CREB-bZIP (domain or fragment)
chain: ARKREVRLMKNREAARECRRKKKEYVKCLENRVAVLENQNKTLIEELKALKDLYCHKSD

Source: PMC4656143
